In patent publication US20220282217A1, “COMPOSITIONS AND METHODS FOR PREPARING T CELL COMPOSITIONS AND USES THEREOF” (priority 2019, published 2022):
Each block holds one binder with its values, some of them ahead of it.

Columns and labels:
[1] = target: T1, HLA-A01.01 class I MHC molecule (prepared complex) (human); assay: dissociation of peptide-MHC-I complex at 37 C, 125I-labelled b2m, scintillation; settings: remark: other sources report otherwise
[2] = target: T1, HLA-A01.01 class I MHC molecule …; assay: displacement of radiolabeled reference peptide from class I MHC, gel filtration; 'Affinity (nM)'; settings: remark: other sources report otherwise
[3] = target: HLA class I molecule A02.01; assay: pMHC-I dissociation half-life, 125I-b2m; settings: remark: other sources report otherwise
[4] = target: HLA class I molecule A24.02; assay: pMHC-I dissociation half-life, 125I-b2m; settings: remark: other sources report otherwise
[5] = target: HLA class I molecule B07.02; assay: pMHC-I dissociation half-life, 125I-b2m; settings: remark: other sources report otherwise
[6] = target: HLA class I molecule B08.01; assay: pMHC-I dissociation half-life, 125I-b2m; settings: remark: other sources report otherwise
[7] = target: HLA class I molecule A02.01; assay: competition with radiolabeled reference peptide on purified MHC I; settings: remark: other sources report otherwise
[8] = target: HLA class I molecule A24.02; assay: as above; settings: remark: other sources report otherwise
HLA-A01.01 (human) [9] = assay: pMHC-I complex dissociation at 37 C, 125I-b2m, half-life; settings: remark: other sources report otherwise
HLA-A02.01 (human) [10] = assay: as above; settings: remark: other sources report otherwise
HLA-A02.01 (human) [11] = assay: competition vs radiolabeled reference peptide on purified MHC I, gel filtration; settings: remark: other sources report otherwise
[12] = target: T2, HLA-A02.01 class I MHC molecule (prepared complex) (human); assay: dissociation of peptide-MHC-I complex at 37 C, 125I-labelled b2m, scintillation; settings: remark: other sources report otherwise
[13] = target: T3, HLA-A24.02 class I MHC molecule (prepared complex) (human); assay: as above; settings: remark: other sources report otherwise
[14] = target: T2, HLA-A02.01 class I MHC molecule …; assay: displacement of radiolabeled reference peptide from class I MHC, gel filtration; 'Affinity (nM)'; settings: remark: other sources report otherwise
[15] = target: T3, HLA-A24.02 class I MHC molecule …; assay: as above; settings: remark: other sources report otherwise
HLA-A02.01 (human) [16] = assay: competition with radiolabeled reference peptide, purified MHC I; settings: remark: other sources report otherwise
HLA-A03.01 (human) = assay: as above; settings: remark: other sources report otherwise
HLA-B07.02 (human) [17] = assay: pMHC-I dissociation half-life, 125I-b2m; settings: remark: other sources report otherwise
HLA-B07.02 (human) [18] = assay: competition with radiolabeled reference peptide, purified MHC I; settings: remark: other sources report otherwise
HLA-A01.01 (human) [19] = assay: pMHC-I dissociation half-life, 125I-b2m; settings: remark: other sources report otherwise
HLA-A02.01 (human) [20] = assay: pMHC-I dissociation half-life, 125I-b2m; settings: remark: other sources report otherwise
HLA-A01.01 (human) [21] = assay: competition with radiolabeled reference peptide, purified MHC I; settings: remark: other sources report otherwise
[22] = target: HLA class I molecule B07.02; assay: competition with radiolabeled reference peptide on purified MHC I; settings: remark: other sources report otherwise
[23] = target: HLA class I molecule B08.01; assay: as above; settings: remark: other sources report otherwise
[24] = target: HLA-A02:01 class I MHC molecule (human); assay: pMHC-I dissociation at 37 C, 125I-labeled b2m, scintillation counts; settings: remark: other sources report otherwise
[25] = target: HLA-B07:02 class I MHC molecule (human); assay: as above; settings: remark: other sources report otherwise
[26] = target: HLA-A02:01 class I MHC molecule (human); assay: competition with a radiolabeled reference peptide for purified MHC I, gel filtration; 'Affinity (nM)'; settings: remark: other sources report otherwise
[27] = target: HLA-B07:02 class I MHC molecule (human); assay: as above; settings: remark: other sources report otherwise
[28] = target: T4, HLA-B07.02 class I MHC molecule (prepared complex) (human); assay: dissociation of peptide-MHC-I complex at 37 C, 125I-labelled b2m, scintillation; settings: remark: other sources report otherwise
[29] = target: T4, HLA-B07.02 class I MHC molecule …; assay: displacement of radiolabeled reference peptide from class I MHC, gel filtration; 'Affinity (nM)'; settings: remark: other sources report otherwise
HLA-B08.01 (human) = assay: competition with radiolabeled reference peptide, purified MHC I
HLA-A01.01 (human) [30] = assay: competition vs radiolabeled reference peptide on purified MHC I, gel filtration; settings: remark: other sources report otherwise

Binder: CLTSTVQLIM […, listing 1 of 2 here]
- Stability (T1/2 (h)) (HLA-A01.01 (human) [9]): 0 h
- Stability (T1/2 (h)) (HLA-A02.01 (human) [10]): 0 h
- IC50 (HLA-A02.01 (human) [11]): 716 nM

Binder: MLLRLNLRKM
- IC50 (HLA-A02.01 (human) [16]): 2510 nM
- IC50 (HLA-A03.01 (human)): 117 nM

Binder: IMQLMPFGCL
- Stability (half-life (hr.)) [12]: 30.9 min
- Stability (half-life (hr.)) [13]: 0 h
- IC50 [14]: 653 nM
- IC50 [15]: 14.1 µM

Binder: MLTDSLFLPI
- Stability (T1/2 (h)) (HLA-A01.01 (human) [19]): 0 h
- Stability (T1/2 (h)) (HLA-A02.01 (human) [20]): 1 h
- IC50 (HLA-A01.01 (human) [21]): 7.67 µM

Binder: MQLMPFGCLL
- Stability (half-life (hr.)) [12]: 22.9 min
- Stability (half-life (hr.)) [13]: 0 h
- IC50 [14]: 16.3 nM
- IC50 [15]: 18.9 µM

Binder: MQLMPFGCL
- Stability (half-life (hr.)) [12]: 22.1 min
- Stability (half-life (hr.)) [28]: 0 h
- IC50 [14]: 116 nM
- IC50 [29]: 1590 nM

Binder: YVMAYVMAG
- Stability (T1/2 (h)) [3]: 2.5 h
- Stability (T1/2 (h)) [5]: 0 h
- Stability (T1/2 (h)) [6]: 1.2 h
- IC50 [7]: 11500 nM
- IC50 [22]: 170 nM

Binder: LKKLRSPL
- IC50 (HLA-B08.01 (human)): 0.6 nM

Binder: WMTETLFDIV
- Stability (T1/2 (h)) (HLA-A01.01 (human) [19]): 0 h
- Stability (T1/2 (h)) (HLA-A02.01 (human) [20]): 0.4 h
- IC50 (HLA-A01.01 (human) [21]): 14.4 µM
- IC50 (HLA-A02.01 (human) [16]): 40 nM

Binder: MANGSLLNYL
- Stability (half-life (hr.)) [24]: 0 h
- Stability (half-life (hr.)) [25]: 0 h
- IC50 [26]: 1010 nM

Binder: YMANGSLLN
- Stability (half-life (hr.)) [24]: 0 h
- IC50 [26]: 4000 nM

Binder: LTSTVQLIM
- IC50 (HLA-A01.01 (human) [30]): 2890 nM

Binder: FELLSTPPL
- Stability (T1/2 (h)) [3]: 0 h
- Stability (T1/2 (h)) [6]: 0 h
- IC50 [7]: 225 nM
- IC50 [23]: 3180 nM

Next, values leading:

- Stability (half-life (hr.)) [1]: 6.22 min
- IC50 [2]: 2.89 µM
Binder: LTSTVQLIM [EGFR, T790M peptide …]

- Stability (T1/2 (h)) [3]: 5 h
- Stability (T1/2 (h)) [4]: 0.4 h
- Stability (T1/2 (h)) [5]: 0 h
- Stability (T1/2 (h)) [6]: 0 h
- IC50 [7]: 48 nM
- IC50 [8]: 0.633 µM
Binder: SLMPAHWSI

- Stability (T1/2 (h)) [3]: 1 h
- Stability (T1/2 (h)) [4]: 0 h
- Stability (T1/2 (h)) [6]: 0 h
- IC50 [7]: 62 nM
- IC50 [8]: 8.52 µM
Binder: SQIMSLWGL

- Stability (half-life (hr.)) [12]: 0 min
- Stability (half-life (hr.)) [13]: 0 h
- IC50 [14]: 4940 nM
- IC50 [15]: 4.1 µM
Binder: VQLIMQLMPF

- Stability (T1/2 (h)) (HLA-B07.02 (human) [17]): 5.5 h
- IC50 (HLA-B07.02 (human) [18]): 8 nM
Binder: LPRKPTRAA

- Stability (T1/2 (h)) [3]: 3.5 h
- Stability (T1/2 (h)) [5]: 0 h
- Stability (T1/2 (h)) [6]: 0.5 h
- IC50 [22]: 2590 nM
- IC50 [23]: 6 nM
Binder: SLGNHLCPL

- Stability (half-life (hr.)) [24]: 3.04 h
- Stability (half-life (hr.)) [25]: 0 h
- IC50 [26]: 67.7 nM
- IC50 [27]: 866 nM
Binder: SLLNYLREM

- Stability (T1/2 (h)) [3]: 0.6 h
- Stability (T1/2 (h)) [6]: 0 h
- IC50 [7]: 117 nM
- IC50 [23]: 872 nM
Binder: YLGNHMNIA

- Stability (half-life (hr.)) [1]: 0 min
- Stability (half-life (hr.)) [12]: 0 min
- IC50 [2]: 8.28 µM
- IC50 [14]: 537 nM
Binder: CLTSTVQLIM [EGFR_T790M peptide …, listing 2 of 2 here]

- Stability (T1/2 (h)) [3]: 0.4 h
- Stability (T1/2 (h)) [4]: 0 h
- Stability (T1/2 (h)) [6]: 0 h
- IC50 [7]: 164 nM
- IC50 [8]: 12.4 µM
Binder: LSLMPAHWSI

- Stability (T1/2 (h)) [3]: 20.9 h
- Stability (T1/2 (h)) [5]: 0 h
- Stability (T1/2 (h)) [6]: 0 h
- IC50 [7]: 57 nM
- IC50 [22]: 52600 nM
Binder: YVMAYVMAGV
